The values that follow come from patent US20240228559A1, “REDOX SENSITIVE CRALBP MUTANT PROTEINS” (UNIVERSITÄT BERN, priority 2021, published 2024).

Data set [1] is described as follows: Photoisomerization assay of cis-retinal complexes under daylight bulb, UV/Vis. It is filed as physicochemical. The settings on record: for k, reaction velocity of photoisomerization: oxidized overnight at 4° C. with 5 mM oxidized glutathione, reduced with DTT. How it is done:
Photoisomerization assays of cis-retinal and its complexes with wild-type CRALBP or with di-cysteine mutant A212C:T250C of CRALBP were performed essentially as described by Saari et al. (Saari J C and Bredberg D L, ([…]), J Biol Chem. 262(16):7618-22). For this, the gel permeation chromatography purified ligand complexes were diluted to 26 μM in (GFC) buffer (10 mM Hepes, 100 mM NaCl, pH 7.5) and equimolar amounts of BSA were added to avoid protein precipitation through the light induced formation of free all-trans-retinal. […] Simultaneously UV/Vis absorption spectra were collected every 180 seconds for 3600 sec in total using the Evolution array UV/Vis spectrophotometer (Thermo Scientific). For photoisomerization experiments of the oxidized mutant A212C: T250C or the wild-type CRALBP, 5 mM oxidized glutathione was added to the preformed complexes and the mixtures were kept overnight at 4° C. For repeated reduction, the oxidized glutathion was first removed from the samples using a Vivaspin 15R Hydrosart (Sartorius) by three times concentrating the samples to a tenth of the volume and subsequent redilution in buffer (10 mM Hepes, 100 mM NaCl, pH 7.5) to the original volume. The washed samples were then reduced by adding 5 mM DTT and kept at 4° C. for 1 hour. […] Thus, the introduction of the A212C:T250C double mutation represents an engineered redox-sensitive on-off switch into human CRALBP allowing for a reversible turning on and off of CRALBP's mobile gate functionality. The two mutations are located at adjacent positions in the mobile gate's interface of CRALBP allowing for the formation of an intramolecular disulfide bond under oxidizing conditions and to regain the gate's native functionality under reducing conditions.

Data set [2] can be described thus: Dynamic light scattering of GFC complex fractions. It is filed as physicochemical. The settings on record: DLS, 25° C., H2O; ± SD. How it is done:
The same fractions derived from the preparative GFC that were characterized by analytical GFC, were also analyzed by dynamic light scattering (DLS) on a Malvern Zetasizer S®. Each DLS experiment contains was performed following the settings compiled in Table 5, the run duration and number of runs per measurement was set according to the auto-optimization of the Malvern Zetasizer software.

The conditions of data set [3]: both in complex with 11-cis-retinal; estimated from first order rate constants and extinction coefficients; cited from earlier work.
The target of the next data set is T1, CRALBP (Bos taurus, UniProt P10123).
T1 construct: CRALBP was isolated from bovine retina; from tissue; host or cells: bovine retina
As to conditions: CRALBP isolated from bovine retina; cited from earlier work.

T1 sequence (P10123 whole entry): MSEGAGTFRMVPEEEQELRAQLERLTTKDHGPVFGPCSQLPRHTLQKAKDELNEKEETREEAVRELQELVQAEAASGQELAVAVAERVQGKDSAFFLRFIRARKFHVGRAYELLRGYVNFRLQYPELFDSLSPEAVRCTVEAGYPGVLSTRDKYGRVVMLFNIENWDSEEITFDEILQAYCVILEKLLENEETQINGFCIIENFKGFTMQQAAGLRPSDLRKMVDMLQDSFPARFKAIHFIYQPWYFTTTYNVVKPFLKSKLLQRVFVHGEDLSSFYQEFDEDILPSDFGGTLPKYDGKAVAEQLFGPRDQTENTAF

Consider “ox. A212C:T250C: 11-cis-retinal: oxidized A212C:T250C mutant in complex with 11-cis-retinal”, for which the “k, reaction velocity of photoisomerization” value (from here on “k, reaction velocity”) in data set [1] (FIG. 9) worked out at 6.44e-06 s⁻¹.

For the compound “monomeric complex of di-cysteine A212C:T250C CRALBP with 9-cis-retinal: monomeric GFC fraction of A212C:T250C CRALBP loaded with 9-cis-retinal”, in data set [2], the “average size distribution in diameter” value was determined as 6.50±1.50 nm.

In the case of “CRALBP: CRALBP isolated from bovine retina, in complex with 11-cis-retinal”, in data set [3], the “expected photoisomerization in CRALBP compared to rhodopsin” value is recorded as 4%.

`CC1=C(/C=C/C(C)=C/C=C/C(C)=C/C=O)C(C)(C)CCC1` [11-cis-retinal]: the Kd at CRALBP is 20 nM.

“SHMW: super high molecular weight oligomeric complex fraction of A212C:T250C CRALBP with 9-cis-retinal”: the “average size distribution in diameter” value in data set [2] worked out at 28.28±2.13 nm.

“wild-type: wild-type CRALBP in complex with cis-retinal, photoisomerization assay [reference compound]”: the “k, reaction velocity” value in data set [1] (FIG. 9) came out at 6.324e-05 s⁻¹.

Take “red. A212C:T250C: 11-cis-retinal: reduced A212C:T250C mutant in complex with 11-cis-retinal”: the “k, reaction velocity” value in data set [1] (FIG. 9) came to 5.988e-05 s⁻¹.

As for `CC1=C(/C=C/C(C)=C\C=C\C(C)=C\C=O)C(C)(C)CCC1` [9-cis-retinal], the dissociation constant Kd on CRALBP is 53 nM.

With “A212C:T250C: human CRALBP mutein with alanine 212 and threonine 250 replaced by cysteines, SEQ ID NO:9”, in data set [1] (FIG. 8, complex with cis-retinal, 1000 lux), the “increase of photostability (half-life t1/2), oxidized versus reduced redox state” value is recorded as 20 fold. Also, the “slowing down of the rate of photoisomerization” value in data set [1] (oxidized state, FIG. 9, 380 lux, room temperature) is reported as “at least 10 fold”. In data set [1] (repeat reduction of the oxidized sample in 5 mM DTT), the “behaviour in photoisomerization assay after repeat reduction” value is “re-established wild-type like behavior”.

Take `CC1=C(/C=C/C(C)=C/C=C\C(C)=C\CO)C(C)(C)CCC1` [11-cis-retinol]: at CRALBP, the Kd is 60 nM.

For “oxidized A212C:T250C:9-cis-retinal: oxidized A212C:T250C mutant in complex with 9-cis-retinal”, the photoisomerization detectable result in data set [1] (FIG. 9, oxidized with 5 mM oxidized glutathione) was “No photoisomerization was detectable”.

With “HMW: high molecular weight oligomeric complex fraction of A212C:T250C CRALBP with 9-cis-retinal”, the “average size distribution in diameter” value in data set [2] amounted to 13.50±0.47 nm.

Turning to “dimeric complex: dimeric GFC fraction of A212C:T250C CRALBP loaded with 9-cis-retinal”, the “average size distribution in diameter” value in data set [2] is listed as 8.72±2.41 nm.

In the case of `CC1=C(/C=C/C(C)=C/C=C/C(C)=C/C=O)C(C)(C)CCC1` [13-cis], the “binding to CRALBP” value at CRALBP is listed as “does not bind”.

By Kd is commonly meant the concentration at which binding is half-saturated.
